The record followed here is patent publication US7648964B2, “Use of lacritin in promoting ocular cell survival” (University of Virginia Patent Foundation, priority 2004, dated 2010).

The test system of one test is HSG cells. Nature of the test: Calcium mobilization imaging in HSG cells (Fluo-4). It is filed as cell-based, human. The method, then: Cells were seeded at 1.4×10^4 HSG cells/mm^2 or 0.7×10^4 HSG cells/mm^2 on Matrigel-coated (100 μg/ml; BD Biosciences; San Diego Calif.) coverslips to respectively achieve 70-80% confluency after overnight or 48 h growth in 6-well plates containing phenol red-free Dulbecco's modified Eagle's medium with 10% fetal calf serum.
Other cells were incubated (0.7×10^4HSG cells/mm^2 overnight plating) with 100 ng/ml pertussis toxin (Calbiochem; San Diego Calif.) in phenol red-free Dulbecco's modified Eagle's medium with 10% fetal calf serum; or vehicle alone). Cells were washed with calcium-free/phenol red-free Hanks basic salt solution, 20 mM N-2-hydroxyethylpiperazine-N′-2-ethane sulfonic acid and then incubated for 1 h at room temperature with the same solution containing fluo-4 μM at 4 μM (FluoroPure grade [Molecular Probes; Eugene Oreg.] dissolved in DMSO plus 20% Pluronic F-127). Cells were washed three times for 60 min at room temperature with calcium-free/phenol red-free Hanks basic salt solution with 5 mM Ca^2+ or 5 mM EGTA. Temperature was stabilized for 5 min at 37° C. coverslips were placed on the stage of a TE-200 epifluorescent microscope (Bio-Rad Radiance2100 confocal/multiphoton system using Plan Fluor 60×NA 1.4 Oil IR objective lens [Bio-Rad, Hercules Calif.] as part of the W. M. Keck Center for Cellular Imaging, University of Virginia), subjected to a 488 nm argon laser light source with emission at 528 nm. Baseline monitoring was followed by addition of lacritin or deletion fragments in phenol red-free Hanks basic salt solution.
A general note: Calcium assays in cells follow changes in intracellular calcium, usually with a dye or a luminescent sensor.

Another test deals with cervical (HeLa) cells. The experiment in a line: 3H-thymidine uptake mitogenesis assay. It is filed as cell-based, human. The method, then: (§1) For phosphotyrosine blotting and mitogenesis assays, cells in serum-containing media were seeded overnight in 24-well plates at a density of 0.5×10^5 cells/mm^2 corresponding to 20-30% confluency after cell attachment, incubated in serum-free media without supplements for 24 h (phosphotyrosine) or washed with serum-free media without supplements three times (mitogenesis) and incubated with lacritin (1-1000 nM), or positive controls EGF (1.6 nM) and 10% fetal bovine serum, or negative controls bovine serum albumin or no additive in serum-free media without supplements for the indicated times (phosphotyrosine) or 30 h (mitogenesis). For phosphotyrosine assays, cells were extracted in 1% NP40 containing sodium vanadate (2 mg/ml), DTT (5 mg/ml), protease inhibitors, 50 mM HEPES, 100 mM NaCl, and 2 mM EDTA; then separated by 10% SDS PAGE, transferred and blotted. The following antibodies (Cell Signaling Technology, Beverly Mass.) were tested: antiphosphotyrosine antibody (P-Tyr-100), anti-phospho-PKC αβII, anti-PKCα, anti-phospho-PKCδ, anti-phospho-PKC (pan), anti-p44/42 MAPK, anti-phospho-Raf, anti-phospho-SAPK/JNK, anti-phospho-p38 Map kinase, anti-phospho-Raf, anti-phospho-Akt, anti-phospho-CaMKII, anti-phospho-MARCKS, or anti-tubulin (loading control). After washing, bound antibodies were detected with peroxidase-labeled secondary antibody and ECL. With the exception of at least nine proteins in the P-Tyr-100 blot (FIG. 1), none of the effectors tested above appeared to be phospho-activated during lacritin signaling (not shown). For mitogenesis (Hussaini et al., '00), [^3H]-thymidine (2 mCi/ml) was added for the next 6 h. Incorporation was stopped with ice-cold phosphate buffered saline and followed by addition of cold and then room temperature trichloracetic acid (10%) for 10 min each, washing of cells with phosphate buffered saline, solubilization with 1 N sodium hydroxide, neutralization with 1 N hydrochloric acid, addition of scintillation fluid and then quantitation in a scintillation counter. To deplete PKCα in HSG cells, a pool of four PKCα-specific siRNAs (100 nM) were transfected via LipofectAMINE 2000 in Opti-MEMI Reduced Serum Medium (Invitrogen, Grand Island N.Y.) without serum and antibiotics according to manufacturer's instructions. Each of the four siRNAs was also individually transfected. In negative controls, cells were transfected with a pool of four lamin-specific siRNAs (Upstate LLC, Charlottesville Va.; Dharmacon Inc, Lafayette Colo.). Seventy-two hours post-transfection, mitogenesis was assessed by co-addition of 10 […] lacritin and [^3H]-thymidine (2 mCi/ml) (Amersham, Piscataway N.J.) for 24 hrs. PKCα depletion was confirmed by Western blotting.

Test [1] has as its system embryonic kidney (HEK) cells. The experiment in a line: 3H-thymidine uptake mitogenesis assay. Type of test: cell-based, human. The method, then:
as §1

Test [2] has as its system erythroleukemia (K-562) cells. Nature of the test: 3H-thymidine uptake mitogenesis assay. Type of test: cell-based, human. As to the method: as §1
Test [3] concerns fibrosarcoma (HT1080) cells. Nature of the test: 3H-thymidine uptake mitogenesis assay. Type of test: cell-based, human. The method, then:
as §1

Test [4] relates to foreskin fibroblast (HS68) cells. Nature of the test: 3H-thymidine uptake mitogenesis assay. It is filed as cell-based, human. The method, then:
as §1

The test system of another test is melanoma (SK-MEL) cells. The experiment in a line: 3H-thymidine uptake mitogenesis assay. It is filed as cell-based, human. The method, then: as §1
For the next test, the system named is melanoma (WM-164) cells. The experiment in a line: 3H-thymidine uptake mitogenesis assay. Type of test: cell-based, human. The method, then:
as §1

The test system of test [5] is non-invasive breast carcinoma (MCF7) cells. Nature of the test: 3H-thymidine uptake mitogenesis assay. It is filed as cell-based, human. As to the method: as §1
In a further test the target is T1, syndecan-1 (Homo sapiens, UniProt P18827).
T1 construct: expressed in transfected cells; host or cells: HEK293 (syndecan-1); E. coli ER2566 (lacritin-intein)
T1 sequence (P18827 23-310): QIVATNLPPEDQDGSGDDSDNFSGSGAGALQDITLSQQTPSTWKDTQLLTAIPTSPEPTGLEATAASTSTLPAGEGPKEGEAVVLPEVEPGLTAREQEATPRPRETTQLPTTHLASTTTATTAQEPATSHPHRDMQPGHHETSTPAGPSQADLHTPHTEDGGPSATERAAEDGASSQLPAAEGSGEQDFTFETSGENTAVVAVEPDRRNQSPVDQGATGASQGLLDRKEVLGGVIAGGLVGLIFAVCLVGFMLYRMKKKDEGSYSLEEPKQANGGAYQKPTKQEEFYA
Nature of the test: Pull down binding assay with lysates of transfected cells. An excerpt: Biotinylated cell surface proteins were applied to lacritin affinity columns. After washing extensively in physiological salt-containing buffer, bound protein was eluted with 1 M NaCl, and identified with avidin-peroxidase using an ECL blot method. In controls, columns lacking lacritin were used. […] 293T cells stably transfected with human syndecan-2 or −4 were kindly provided by Dr. Atsushi Utani (Chiba University). A series of lacritin C-terminal and N-terminal deletion mutants were generated. Pull down binding assays involved incubation of intein-tagged lacritin or intein deletion mutants with lysates of untransfected or transfected cells followed by precipitation and SDS PAGE. Immunolocalization of syndecan-1 in human lacrimal glands was performed using anti-human syndecan-1 antibody (CD138).

Take `Cn1c2ccccc2c2c3c(c4c5ccccc5n(CCC#N)c4c21)CNC3=O` [Go 6976]: the “effect on Ca++ signaling after lacritin stimulation” value with HSG cells (Example 4) is on record as “suppress Ca++ signaling”. Also, the “effect on carbachol-stimulated calcium mobilization” value in the test on HSG cells (U73122 1 μM, Go 6976 1 μM, even at 10 μM) is on record as “unaffected”. The “effect on lacritin-stimulated calcium mobilization” value in the test on HSG cells (preincubation: pertussis toxin 100 ng/ml, U73122 1 μM, Go 6976 1 μM, or siRNA) is reported as “completely inhibited”.

B1: lacritin: recombinant human lacritin from E. coli; mature 119 residue fragment (SEQ ID NO:10) of native lacritin SEQ ID NO:4 (protein, listed as Homo sapiens)
chain: EDASSDSTGADPAQEAGTSKPNEEISGPAEPASPPETTTTAQETSAAAVQGTAKVTSSRQELNPLKSIVEKSILLTEQALAKAGKGMHGGVPGGKQFIENGSEFAQKLLKKFSLLKPWA
Take B1: the mitogenesis entry was “not mitogenic” in the test with cervical (HeLa) cells; “mitogenic” in [1]; “not mitogenic” in test [2]; “not mitogenic” in test [3]; “not mitogenic” in test [4]; “not mitogenic” in the test on melanoma (SK-MEL) cells. The mitogenesis result (with melanoma (WM-164) cells; in test [5]) was “not mitogenic” throughout. Besides, the calcium mobilization result in the test on HSG cells (10 nM) is on record as “promotes calcium mobilization”. Besides, in the test with HSG cells (10 nM lacritin), the “calcium mobilization in EGTA-containing medium” value is listed as “mobilized internal calcium”. Besides, the “time to calcium mobilization after addition” value in the test with HSG cells (lacritin 10 nM) was no more than 30 s. Also, in the test with syndecan-1, the “binding to mammalian syndecan-1” value was “bound”.
